The record followed here is patent US20060063709A1.

The target in this experiment is NF-kB from mouse cells (nuclear extracts of TPA-stimulated 70Z/3 pre-B cells; also nuclear extracts of the mouse B cell line WEHI 231; cytosolic precursor of 70Z/3) (mouse).

Turning to “IkB (protein inhibitor of NF-kB) prepared from cytosol of unstimulated mouse 70Z/3 pre-B cells”, the DNA binding activity of NF-kB in EMSA (inhibitor assay) is greater than 90% and the reactivation of IkB-inactivated NF-kB DNA binding activity by DOC (EMSA) was determined as 66%.
